According to the supplement of paper PMC9112550, “Optimization of the antimicrobial peptide Bac7 by deep mutational scanning” (BMC Biology, 2022):

The sequences below were run on Escherichia coli TOP10 (assay: shrunken log2 fold change of peptide-encoding DNA abundance (4.5 h post-induction vs induction); higher = less antimicrobial activity (less host growth inhibition)). Conditions: time post-induction: 4.5 h; library: site-saturation at positions 5, 18, 19, 20.
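Note: peptides expressed intracellularly from a pBAD plasmid library in pooled LB shake-flask culture, induced with 0.3% L-arabinose, DNA abundance read by NGS, three biological replicates, DESeq2 with apeglm shrinkage.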

In order of falling “shrunken log2 fold change” value:
1. RRIRMRPPRLPRPRPRPGRMPRP  0.993
2. RRIRFRPPRLPRPRPRPIWWPRP  0.617
3. RRIRMRPPRLPRPRPRPSPWPRP  0.61
4. RRIRKRPPRLPRPRPRPGPFPRP  0.56
5. RRIRRRPPRLPRPRPRPLIYPRP  0.431
6. RRIRKRPPRLPRPRPRPSCEPRP  0.401
7. RRIRCRPPRLPRPRPRPEWRPRP  0.391
8. RRIRMRPPRLPRPRPRPSPVPRP  0.384
9. RRIRWRPPRLPRPRPRPRMWPRP  0.36
10. RRIRDRPPRLPRPRPRPGRRPRP  0.311
11. RRIRNRPPRLPRPRPRPTQSPRP  0.291
12. RRIRDRPPRLPRPRPRPKPKPRP  0.254
13. RRIRHRPPRLPRPRPRPVLWPRP  0.234
14. RRIRCRPPRLPRPRPRPVSCPRP  0.193
15. RRIRMRPPRLPRPRPRPRNDPRP  0.193
16. RRIRERPPRLPRPRPRPESTPRP  0.176
17. RRIRNRPPRLPRPRPRPRWFPRP  0.173
18. RRIRWRPPRLPRPRPRPVMPPRP  0.15
19. RRIRERPPRLPRPRPRPEQNPRP  0.139
20. RRIRARPPRLPRPRPRPHGHPRP  0.125
21. RRIRNRPPRLPRPRPRPEALPRP  0.102
22. RRIRRRPPRLPRPRPRPIWMPRP  0.0986
23. RRIRPRPPRLPRPRPRPATEPRP  0.0977
24. RRIRKRPPRLPRPRPRPAGSPRP  0.0961
25. RRIRFRPPRLPRPRPRPDPWPRP  0.0822
26. RRIRSRPPRLPRPRPRPCWCPRP  0.0677
27. RRIRPRPPRLPRPRPRPANAPRP  0.0662
28. RRIRCRPPRLPRPRPRPMHRPRP  0.0421
29. RRIRLRPPRLPRPRPRPVSQPRP  0.0349
30. RRIRARPPRLPRPRPRPGHRPRP  0.033
31. RRIRNRPPRLPRPRPRPCLTPRP  0.0253
32. RRIRPRPPRLPRPRPRPMGTPRP  0.0218
33. RRIRNRPPRLPRPRPRPNTAPRP  0.0213
34. RRIRPRPPRLPRPRPRPDTWPRP  0.0185
35. RRIRERPPRLPRPRPRPLLMPRP  0.0107
36. RRIRYRPPRLPRPRPRPRNAPRP  0.00628
37. RRIRWRPPRLPRPRPRPKAIPRP  -0.00613
38. RRIRYRPPRLPRPRPRPNRFPRP  -0.00943
39. RRIRRRPPRLPRPRPRPWTYPRP  -0.0139
40. RRIRHRPPRLPRPRPRPQNRPRP  -0.0146
41. RRIRERPPRLPRPRPRPKRFPRP  -0.0239
42. RRIRLRPPRLPRPRPRPDKVPRP  -0.0274
43. RRIRDRPPRLPRPRPRPAWMPRP  -0.0284
44. RRIRLRPPRLPRPRPRPWWLPRP  -0.0334
45. RRIRERPPRLPRPRPRPVNIPRP  -0.0402
46. RRIRFRPPRLPRPRPRPQQTPRP  -0.0409
47. RRIRRRPPRLPRPRPRPKDMPRP  -0.0599
48. RRIRLRPPRLPRPRPRPGHYPRP  -0.0695
49. RRIRFRPPRLPRPRPRPTHRPRP  -0.0781
50. RRIRKRPPRLPRPRPRPMLLPRP  -0.0797
51. RRIRMRPPRLPRPRPRPIDDPRP  -0.0846
52. RRIRLRPPRLPRPRPRPRYNPRP  -0.093
53. RRIRRRPPRLPRPRPRPDNCPRP  -0.113
54. RRIRNRPPRLPRPRPRPYDRPRP  -0.12
55. RRIRFRPPRLPRPRPRPVPSPRP  -0.162
56. RRIRIRPPRLPRPRPRPAWIPRP  -0.187
57. RRIRLRPPRLPRPRPRPWTPPRP  -0.191
58. RRIRQRPPRLPRPRPRPSHTPRP  -0.195
59. RRIRWRPPRLPRPRPRPRYHPRP  -0.198
60. RRIRDRPPRLPRPRPRPVTSPRP  -0.2
61. RRIRQRPPRLPRPRPRPKGPPRP  -0.201
62. RRIRRRPPRLPRPRPRPYNQPRP  -0.207
63. RRIRWRPPRLPRPRPRPFGDPRP  -0.249
64. RRIRSRPPRLPRPRPRPWYMPRP  -0.262
65. RRIRTRPPRLPRPRPRPCLYPRP  -0.342
66. RRIRYRPPRLPRPRPRPNYMPRP  -0.357
67. RRIRCRPPRLPRPRPRPMFFPRP  -0.399
68. RRIRLRPPRLPRPRPRPIRNPRP  -0.45
69. RRIRVRPPRLPRPRPRPFYFPRP  -0.493
70. RRIRCRPPRLPRPRPRPMFGPRP  -0.556
71. RRIRHRPPRLPRPRPRPRYMPRP  -0.559
72. RRIRQRPPRLPRPRPRPHIEPRP  -0.58
73. RRIRPRPPRLPRPRPRPTIIPRP  -0.65
74. RRIRNRPPRLPRPRPRPWFTPRP  -0.786
75. RRIRRRPPRLPRPRPRPNIGPRP  -0.89
